These are literature values, as cited in patent publication US9545449B2, “Site-specific labeling and targeted delivery of proteins for the treatment of cancer” (Advanced Proteome Therapeutics Inc., priority 2012, dated 2017).

The conditions of this series: binding to phosphatidylserine; from Thiagarajan and Tait, J. Biol. Chem. 265:17420-17423 (1990); read-out: Kd (affinity for PS).

B1: Annexin V: human annexin V (SEQ ID NO:1) (Accession P08758); phosphatidylserine-binding protein (protein, listed as Homo sapiens)
chain: MAQVLRGTVTDFPGFDERADAETLRKAMKGLGTDEESILTLLTSRSNAQRQEISAAFKTLFGRDLLDDLKSELTGKFEKLIVALMKPSRLYDAYELKHALKGAGTNEKVLTEIIASRTPEELRAIKQVYEEEYGSSLEDDVVGDTSGYYQRMLVVLLQANRDPDAGIDEAQVEQDAQALFQAGELKWGTDEEKFITIFGTRSVSHLRKVFDKYMTISGFQIEETIDRETSGNLEQLLLAVVKSIRSIPAYLAETLYYAMKGAGTDDHTLIRVMVSRSEIDLFNIRKEFRKNFATSLYSMIKGDTSGDYKKALLLLCGEDD
The term Kd denotes the concentration at which binding is half-saturated. As for B1, the dissociation constant (Kd) is 1.7 nM.
